B1: Azoarcus group I ribozyme (parent)
chain: GUGCCUUGCGCCGGGAAACCACGCAAGGGAUGGUGUCAAAUUCGGCGAAACCUAAGCGCCCGCCCGGGCGUAUGGCAACGCCGAGCCAAGCUUCGGCGCCUGCGCCGAUGAAGGUGUAGAGACUAGACGGCACCCACCUAAGGCAAACGCUAUGGUGAAGGCAUAGUCCAGGGAGUGGCGAAAGUCACACAAACCGG

Variants of: B1
Experiment: reverse-splicing fitness (ratio to wild type); higher = more active; in vitro selection; Mg2+ level not given
Procedure, shortened: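 An in vitro group I ribozyme library with randomized positions was T7-transcribed and gel-purified. In triplicate, 10 pmol RNA in EPPS pH 7.5 was reacted with 50 pmoles of a 30-nt RNA substrate for 1 h at 37 °C across several added MgCl2 levels (1–48 mM), then stopped with EDTA. Products were reverse transcribed from a substrate-complementary primer, PCR-amplified and sequenced (HiSeq 4000). Fitness is a variant's read proportion after selection over that before, normalised to wild type.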

Variant | reverse-splicing fitness
C82A A120C A145G C169G | 0.0102
C82A A111U C150A U176A | 0.0197
C82A A111U C150A U176C | 0.0292
C82A A111U C150A U176G | 0.00995
C82A A120C A145U C150G C169A | 0.0101
C82A A120C A145U C150G C169U | 0.0114
C82A A120C A145U C150G C169G | 0.00692
C82A A120C A145U C150U | 0.086
C82A A120C A145U C150G | 0.0161
C82A A120C A145U C150A | 0.0195
C82A A120C A145G C169A U176C | 0.034
C82A A120C A145G C169A U176A | 0.0242
C82A A120C A145G C169A U176G | 0.00473
C82A A120C A145U | 0.135
C82A A120C A145G | 0.136
C82A A120C A145C | 0.124
C82A A120C A145G C150A C169A U176G | 0.00876
C82A A120C A145G C150A C169A U176A | 0.0224
C82A A120C A145G C150A C169A U176C | 0.0248
C82A A111U A145U U176G | 0.0281
C82A A111U A145U U176A | 0.0937

Variant | reverse-splicing fitness
C82A A111U A145U U176C | 0.134
C82A A120C A145U C150G C169G U176A | 0.00819
C82A A120C A145U C150G C169G U176G | 0.00467
C82A A120C A145U C150G C169G U176C | 0.00545
C82A A111U A145G C169G | 0.0102
C82A A111U A145G C169U | 0.0129
C82A A111U A145G C169A | 0.0104
C82A A120C | 0.144
C82A A111U C150G C169U U176G | 0.00599
C82A A111U C150G C169U U176C | 0.0139
C82A A111U C150G C169U U176A | 0.00699
C82A A111U C150A C169A U176A | 0.0188
C82A A111U C150A C169A U176C | 0.0197
C82A A111U C150A C169A U176G | 0.00811
C82A A111U C150A C169G | 0.00884
C82A A111U C150A C169U | 0.0125
C82A A111U C150A C169A | 0.0117
C82A A120C A145G C150G C169A | 0.01
C82A A120C A145G C150G C169U | 0.0111
C82A A120C A145G C150G C169G | 0.00868
C82A A120C A145C C150G C169U U176G | 0.00498

Variant | reverse-splicing fitness
C82A A120C A145C C150G C169U U176C | 0.0105
C82A A120C A145C C150G C169U U176A | 0.00681
C82A A111U A145U C150U C169U U176G | 0.00717
C82A A111U A145U C150U C169U U176A | 0.0147
C82A A111U A145U C150U C169U U176C | 0.0143
C82A A120C A145C C150A C169G U176C | 0.0244
C82A A120C A145C C150A C169G U176A | 0.032
C82A A120C A145C C150A C169G U176G | 0.00625
C82A A111U A145U C150G C169A | 0.00877
C82A A111U A145U C150G C169G | 0.00819
C82A A111U A145U C150G C169U | 0.00971
C82A A111U A145G C169U U176G | 0.00628
C82A A111U A145G C169U U176A | 0.0154
C82A A111U A145G C169U U176C | 0.0157
C82A A111U C150U | 0.135
C82A A111U C150A | 0.0266
C82A A111U C150G | 0.0198
C82A A111U A145G C150U C169A U176C | 0.0162
C82A A111U A145G C150U C169A U176A | 0.016
C82A A111U A145G C150U C169A U176G | 0.00694
C82A A120C A145U C150U C169A U176A | 0.0178

Variant | reverse-splicing fitness
C82A A120C A145U C150U C169A U176C | 0.0134
C82A A120C A145U C150U C169A U176G | 0.00539
C82A A120C A145C C150A U176C | 0.0155
C82A A120C A145C C150A U176G | 0.00599
C82A A120C A145C C150A U176A | 0.0107
C82A A111U A145G C150U | 0.222
C82A A120C A145U C150U C169A | 0.00998
C82A A120C A145U C150U C169G | 0.0103
C82A A120C A145U C150U C169U | 0.0159
C82A A120C A145U C150A C169A | 0.0105
C82A A120C A145U C150A C169G | 0.00904
C82A A120C A145U C150A C169U | 0.00955
C82A A120C A145G C150G C169A U176C | 0.0128
C82A A120C A145G C150G C169A U176A | 0.0141
C82A A120C A145G C150G C169A U176G | 0.00933
C82A A111U C169A | 0.00917
C82A A111U C169U | 0.014
C82A A111U C169G | 0.00884
C82A A111U A145G C150U C169A | 0.0109
C82A A111U A145G C150U C169U | 0.0139
C82A A111U A145G C150U C169G | 0.00968
